These results are taken from patent US20060171941A1.

Experiment [1] has as its target anti-V region antibodies to CC49 in the serum of patient two. In words: SPR competition, soluble competitor Ab against immobilized HuCC49 for patient two serum anti-V region Abs.
The target in experiment [2] is bovine submaxillary mucin (TAG-72 positive) (bovine). In words: competition RIA against 125I-mCC49 on BSM; relative affinity constant, modified Scatchard.
The target in experiment [3] is anti-V region antibodies to CC49 in the serum of patient one. In words: SPR competition for patient one serum anti-V region Abs.
The target of experiment [4] is tumor-associated glycoprotein-72 on the cell surface of Jurkat cells. In words: flow cytometry, 0.5 ug Ab on Jurkat cells expressing TAG-72.
The target of experiment [5] is anti-V region antibodies to CC49 in the serum of patient one. In words: SPR competition, soluble competitor Ab against immobilized HuCC49 for patient one serum anti-V region Abs.

B1: HuCC49V10 (antibody, V domains shown)
VH: QVQLVQSGAEVVKPGASVKISCKASGYTFTDHAIHWVKQNPGQRLEWIGYFSPGNDDFKYSQKFQGKATLTADTSASTAYVELSSLRSEDTAVYFCTRSLNMAYWGQGTLVTVSS
VL: DIVMSQSPDSLAVSLGERVTLNCKSSQSVLYSSNSKNYLAWYQQKPGQSPKLLIYWASTRESGVPDRFSGSGSGTDFTLTISSVQAEDVAVYYCQQYYSYPLSFGAGTKLELK
In experiment [1], B1 showed an IC50 of 7.7 nM. For the same molecule, the Ka in experiment [2] was found to be 5.9e+07 M⁻¹. In experiment [3], this molecule had a concentration required for 20% inhibition of 80 nM and a percent inhibition at 1000 nM below 30%. Moreover, in experiment [4], the % of gated cells came to 25.8% and the mean fluorescence intensity was 62.9. This molecule also gave an IC50 in experiment [5] above 1000 nM.

B2: humanized CC49 (CDR-grafted) (antibody, V domains shown)
VH: QVQLVQSGAEVVKPGASVKISCKASGYTFTDHAIHWVKQNPGQRLEWIGYFSPGNDDFKYNERFKGKATLTADTSASTAYVELSSLRSEDTAVYFCTRSLNMAYWGQGTLVTVSS
VL: DIVMSQSPDSLAVSLGERVTLNCKSSQSLLYSGNQKNYLAWYQQKPGQSPKLLIYWASARESGVPDRFSGSGSGTDFTLTISSVQAEDVAVYYCQQYYSYPLTFGAGTKLELK
Regarding B2, the IC50 stood at 2.2 nM in experiment [1] and 6 nM in experiment [5]. Further, in experiment [2], the Ka came out at 1.16e+08 M⁻¹. The concentration required for 20% inhibition in experiment [3] was found to be 2 nM.
